Laboratory results as given in paper PMC6458054 (Nature, 2017).

Legend:
[1] = target: full-length (FL) His-ASCC3 (human, UniProt Q8N3C0 1-2202); assay: pull-down
[2] = target: N-terminally deleted His-ASCC3 (human, UniProt Q8N3C0 401-2202); assay: pull-down
N-terminally deleted His-ASCC3, sequence (Q8N3C0 401-2202, stated change not applied): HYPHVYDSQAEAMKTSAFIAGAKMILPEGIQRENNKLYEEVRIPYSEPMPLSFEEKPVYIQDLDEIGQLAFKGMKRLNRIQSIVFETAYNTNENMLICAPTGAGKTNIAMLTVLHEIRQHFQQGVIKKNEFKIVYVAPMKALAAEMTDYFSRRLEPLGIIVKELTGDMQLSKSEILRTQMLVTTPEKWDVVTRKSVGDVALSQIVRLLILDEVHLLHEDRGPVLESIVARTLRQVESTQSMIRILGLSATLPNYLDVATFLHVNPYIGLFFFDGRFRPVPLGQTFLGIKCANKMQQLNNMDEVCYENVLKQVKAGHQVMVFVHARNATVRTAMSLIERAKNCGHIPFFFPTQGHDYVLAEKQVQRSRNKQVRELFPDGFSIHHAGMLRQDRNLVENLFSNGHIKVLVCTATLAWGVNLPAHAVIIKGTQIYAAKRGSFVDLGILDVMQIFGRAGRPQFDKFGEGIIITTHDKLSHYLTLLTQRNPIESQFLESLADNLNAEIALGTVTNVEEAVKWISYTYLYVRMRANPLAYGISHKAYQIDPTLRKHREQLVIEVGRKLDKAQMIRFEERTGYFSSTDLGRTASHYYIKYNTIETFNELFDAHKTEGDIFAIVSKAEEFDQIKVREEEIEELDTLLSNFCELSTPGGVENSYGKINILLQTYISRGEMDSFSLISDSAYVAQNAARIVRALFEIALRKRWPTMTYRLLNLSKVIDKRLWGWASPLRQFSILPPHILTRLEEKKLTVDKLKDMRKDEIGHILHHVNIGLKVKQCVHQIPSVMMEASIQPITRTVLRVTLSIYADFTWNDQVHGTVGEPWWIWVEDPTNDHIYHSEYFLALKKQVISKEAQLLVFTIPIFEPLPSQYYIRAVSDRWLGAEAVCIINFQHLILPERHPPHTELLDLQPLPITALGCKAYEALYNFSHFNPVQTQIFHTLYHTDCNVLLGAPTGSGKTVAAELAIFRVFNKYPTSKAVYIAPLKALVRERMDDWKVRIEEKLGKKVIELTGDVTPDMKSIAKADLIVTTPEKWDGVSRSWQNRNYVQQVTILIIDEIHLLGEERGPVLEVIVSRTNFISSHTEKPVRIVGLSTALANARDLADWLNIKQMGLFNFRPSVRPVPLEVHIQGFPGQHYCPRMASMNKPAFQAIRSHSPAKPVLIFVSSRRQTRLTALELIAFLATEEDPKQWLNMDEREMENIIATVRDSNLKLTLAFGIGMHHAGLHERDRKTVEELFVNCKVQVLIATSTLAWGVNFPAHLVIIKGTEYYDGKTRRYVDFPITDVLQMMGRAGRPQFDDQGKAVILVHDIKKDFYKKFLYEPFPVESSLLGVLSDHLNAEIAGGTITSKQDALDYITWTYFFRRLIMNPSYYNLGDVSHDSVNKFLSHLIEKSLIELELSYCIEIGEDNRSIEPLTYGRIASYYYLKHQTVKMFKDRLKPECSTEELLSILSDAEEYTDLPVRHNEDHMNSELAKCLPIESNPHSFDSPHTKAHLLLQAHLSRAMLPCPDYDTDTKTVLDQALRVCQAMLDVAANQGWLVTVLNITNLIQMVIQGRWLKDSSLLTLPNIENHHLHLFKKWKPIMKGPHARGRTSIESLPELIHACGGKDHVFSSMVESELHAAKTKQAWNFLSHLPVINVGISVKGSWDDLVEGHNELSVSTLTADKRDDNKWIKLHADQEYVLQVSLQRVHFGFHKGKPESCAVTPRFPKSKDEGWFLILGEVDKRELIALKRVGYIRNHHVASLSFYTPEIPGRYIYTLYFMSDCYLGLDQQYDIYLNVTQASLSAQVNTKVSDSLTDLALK

full-length (FL) His-ASCC3, sequence (Q8N3C0 whole entry): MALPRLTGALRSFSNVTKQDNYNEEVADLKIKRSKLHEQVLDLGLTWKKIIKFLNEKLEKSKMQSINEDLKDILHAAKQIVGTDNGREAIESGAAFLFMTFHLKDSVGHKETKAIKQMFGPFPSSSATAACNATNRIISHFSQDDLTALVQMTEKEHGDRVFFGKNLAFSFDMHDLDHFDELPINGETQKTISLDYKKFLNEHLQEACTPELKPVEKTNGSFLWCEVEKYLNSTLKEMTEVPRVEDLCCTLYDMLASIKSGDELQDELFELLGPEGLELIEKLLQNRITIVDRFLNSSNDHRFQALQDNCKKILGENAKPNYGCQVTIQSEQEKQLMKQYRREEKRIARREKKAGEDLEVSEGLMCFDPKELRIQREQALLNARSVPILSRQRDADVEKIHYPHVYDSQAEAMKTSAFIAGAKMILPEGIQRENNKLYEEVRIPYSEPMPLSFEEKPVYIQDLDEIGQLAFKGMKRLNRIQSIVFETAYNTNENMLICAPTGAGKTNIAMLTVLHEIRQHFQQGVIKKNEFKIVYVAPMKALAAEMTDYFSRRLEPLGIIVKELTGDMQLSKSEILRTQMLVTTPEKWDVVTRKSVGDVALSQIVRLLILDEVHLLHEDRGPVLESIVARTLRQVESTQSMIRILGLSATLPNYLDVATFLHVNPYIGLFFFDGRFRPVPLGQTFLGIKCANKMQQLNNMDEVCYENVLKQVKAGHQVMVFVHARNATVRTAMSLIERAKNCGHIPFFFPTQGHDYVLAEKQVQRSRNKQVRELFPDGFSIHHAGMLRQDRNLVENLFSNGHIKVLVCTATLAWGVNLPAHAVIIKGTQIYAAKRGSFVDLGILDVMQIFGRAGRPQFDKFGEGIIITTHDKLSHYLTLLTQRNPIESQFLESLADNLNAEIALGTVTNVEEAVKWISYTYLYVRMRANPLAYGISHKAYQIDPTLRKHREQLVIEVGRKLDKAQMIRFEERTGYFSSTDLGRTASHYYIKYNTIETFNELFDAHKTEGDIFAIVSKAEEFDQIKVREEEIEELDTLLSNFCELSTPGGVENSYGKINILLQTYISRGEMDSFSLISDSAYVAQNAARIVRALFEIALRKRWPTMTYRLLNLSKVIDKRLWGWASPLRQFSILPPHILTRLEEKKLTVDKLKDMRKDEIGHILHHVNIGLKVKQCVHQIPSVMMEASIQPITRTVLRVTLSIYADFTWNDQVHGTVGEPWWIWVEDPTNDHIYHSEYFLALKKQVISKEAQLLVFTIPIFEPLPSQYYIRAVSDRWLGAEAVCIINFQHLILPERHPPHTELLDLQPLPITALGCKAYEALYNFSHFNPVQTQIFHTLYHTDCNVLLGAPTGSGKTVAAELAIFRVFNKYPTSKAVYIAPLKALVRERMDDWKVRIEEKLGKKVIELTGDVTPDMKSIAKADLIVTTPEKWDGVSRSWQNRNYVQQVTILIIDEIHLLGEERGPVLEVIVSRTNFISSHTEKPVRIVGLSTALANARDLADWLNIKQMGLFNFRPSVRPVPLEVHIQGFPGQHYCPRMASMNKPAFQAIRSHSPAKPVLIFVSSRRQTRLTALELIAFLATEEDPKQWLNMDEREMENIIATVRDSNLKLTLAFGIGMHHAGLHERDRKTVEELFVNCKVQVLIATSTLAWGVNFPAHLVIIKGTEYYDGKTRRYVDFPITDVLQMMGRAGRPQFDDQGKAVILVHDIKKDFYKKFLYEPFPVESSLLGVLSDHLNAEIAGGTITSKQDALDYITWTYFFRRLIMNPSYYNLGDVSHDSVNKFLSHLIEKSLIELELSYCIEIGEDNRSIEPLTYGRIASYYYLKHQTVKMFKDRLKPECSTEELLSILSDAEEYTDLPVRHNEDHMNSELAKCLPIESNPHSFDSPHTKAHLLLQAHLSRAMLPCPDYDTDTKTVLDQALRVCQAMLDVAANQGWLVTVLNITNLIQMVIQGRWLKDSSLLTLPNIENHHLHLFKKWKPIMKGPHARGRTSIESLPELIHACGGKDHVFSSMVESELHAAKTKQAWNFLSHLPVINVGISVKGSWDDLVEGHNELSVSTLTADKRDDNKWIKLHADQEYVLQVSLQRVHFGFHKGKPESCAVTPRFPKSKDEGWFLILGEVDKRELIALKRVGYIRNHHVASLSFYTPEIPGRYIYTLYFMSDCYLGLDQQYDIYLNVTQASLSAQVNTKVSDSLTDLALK

Row | binding result [1] | binding result [2] | Binder
1 | binds |  | Flag-ASCC2 (natural protein) MPALPLDQLQITHKDPKTGKLRTSPALHPEQKADRYFVLYKPPPKDNIPALVEEYLERATFVANDLDWLLALPHDKFWCQVIFDETLQKCLDSYLRYVPRKFDEGVASAPEVVDMQKRLHRSVFLTFLRMSTHKESKDHFISPSAFGEILYNNFLFDIPKILDLCVLFGKGNSPLLQKMIGNIFTQQPSYYSDLDETLPTILQVFSNILQHCGLQGDGANTTPQKLEERGRLTPSDMPLLELKDIVLYLCDTCTTLWAFLDIFPLACQTFQKHDFCYRLASFYEAAIPEMESAIKKRRLEDSKLLGDLWQRLSHSRKKLMEIFHIILNQICLLPILESSCDNIQGFIEEFLQIFSSLLQEKRFLRDYDALFPVAEDISLLQQASSVLDETRTAYILQAVESAWEGVDRRKATDAKDPSVIEEPNGEPNGVTVTAEAVSQASSHPENSEEEECMGAAAAVGPAMCGVELDSLISQVKDLLPDLGEGFILACLEYYHYDPEQVINNILEERLAPTLSQLDRNLDREMKPDPTPLLTSRHNVFQNDEFDVFSRDSVDLSRVHKGKSTRKEENTRSLLNDKRAVAAQRQRYEQYSVVVEEVPLQPGESLPYHSVYYEDEYDDTYDGNQVGANDADSDDELISRRPFTIPQVLRTKVPREGQEEDDDDEEDDADEEAPKPDHFVQDPAVLREKAEARRMAFLAKKGYRHDSSTAVAGSPRGHGQSRETTQERRKKEANKATRANHNRRTMADRKRSKGMIPS
2 |  | binds | Flag-ALKBH3 (enzyme) MEEKRRRARVQGAWAAPVKSQAIAQPATTAKSHLHQKPGQTWKNKEHHLSDREFVFKEPQQVVRRAPEPRVIDREGVYEISLSPTGVSRVCLYPGFVDVKEADWILEQLCQDVPWKQRTGIREDITYQQPRLTAWYGELPYTYSRITMEPNPHWHPVLRTLKNRIEENTGHTFNSLLCNLYRNEKDSVDWHSDDEPSLGRCPIIASLSFGATRTFEMRKKPPPEENGDYTYVERVKIPLDHGTLLIMEGATQADWQHRVPKEYHSREPRVNLTFRTVYPDPRGAPW
